Assay results: US10465009B2, “BCMA antigen binding proteins” (Amgen Inc., priority 2012, dated 2019)
“Also recorded” adds a separate entry of the source.

T1: [6x Histidine-SUMO]-huBCMA (SEQ ID NO:350) and carboxy terminal clipped forms (Homo sapiens, UniProt Q02223)
T1 construct: GGS-G3 linker + Avi tag (lost in the clipped species) (C); made in house
T1 sequence (Q02223 5-54): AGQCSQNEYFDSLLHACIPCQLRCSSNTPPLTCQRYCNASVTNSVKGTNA


Tested on: H929 cells
Test: CellTiter-Glo Luminescent Cell Viability Assay, H929
Assay type: cell-based, human
Details: not given
Protocol: The ADCs were tested for the ability to target and kill BCMA-expressing myeloma cells. The CellTiter-Glo® Luminescent Cell Viability Assay is a homogeneous method to determine the number of viable cells in culture based on quantitation of the ATP present, which signals the presence of metabolically active cells. The CellTiter-Glo® Assay is applicable to cytotoxicity assays (see http://www.promega.com/products/cell-health-assays/cell-viability-assays/celltiterglo-luminescent-cell-viability-assay/ for more information). The cell viability assay was used to assess the relative killing capacity of various ADCs on various multiple myeloma cell lines and B-cell lines. The protocol provided in the Cell Titer-Glo kit (Promega G7572) was followed. In short, 5×10^3 target cells in 90 ul RPMI 1640, 10% FBS were aliquoted into clear, flat bottom, white walled 96 well plates (Costar #3903). The ADCs were diluted into a 10× stock to create 500 nM maytansine drug equivalents. Each ADC was serially diluted in 2-fold dilutions in RPMI 1640, 10% FBS starting with 500 nM stock. 10 ul of the 10×ADC dilution series was added to the 90 ul of cells in media (triplicate wells). The highest concentration of ADC was approximately 50 nM maytansine drug equivalents, and the lowest concentration of ADC was approximately 50 pM maytansine drug equivalents. An isotype control ADC (an anti-streptavidin huIgG1 conjugated to MCC-DM1) was included, as well as a media-only control. The plates were incubated at 37° C., 5% CO2 for 96 hours. After incubation, 100 ul of the Substrate Solution (Promega G7572) was added to each well. Luminescence was read on an EnVision™ Multilabel reader (PerkinElmer) or Analyst HT plate reader (LJL Biosciences). The data was analyzed and graphed using GraphPad Prism™ to determine the relative efficacy of the ADCs on various cancer cell lines.
The 2A1CV5-MCC-DM1, 32B5-MCC-DM1 and 29C12-MCC-DM1 ADCs were tested for the ability to target and kill BCMA-expressing myeloma cells (H929). The CellTiter-Glo® Luminescent Cell Viability Assay is a homogeneous method to determine the number of viable cells in culture based on quantitation of the ATP present, which signals the presence of metabolically active cells. The CellTiter-Glo® Assay is applicable to cytotoxicity assays (see http://www.promega.com/products/cell-health-assays/cell-viability-assays/celltiter_glo-luminescent-cell-viability-assay/ for more information). The cell viability assay was used to assess the relative killing capacity of various ADCs on various multiple myeloma cell lines and B-cell lines. The protocol provided in the Cell Titer-Glo kit (Promega G7572) was followed. In short, 5×10^3 target cells in 90 ul RPMI 1640, 10% FBS were aliquoted into clear, flat bottom, white walled 96 well plates (Costar #3903). The ADCs were diluted into a 10× stock to create 500 nM maytansine drug equivalents. Each ADC was serially diluted in 2-fold dilutions in RPMI 1640, 10% FBS starting with 500 nM stock. 10 ul of the 10×ADC dilution series was added to the 90 ul of cells in media (triplicate wells). The highest concentration of ADC was approximately 50 nM maytansine drug equivalents, and the lowest concentration of ADC was approximately 50 pM maytansine drug equivalents. An isotype control ADC (an anti-streptavidin huIgG1 conjugated to MCC-DM1) was included, as well as a media-only control. The plates were incubated at 37° C., 5% CO2 for 96 hours. After incubation, 100 ul of the Substrate Solution (Promega G7572) was added to each well. Luminescence was read on an EnVision™ Multilabel reader (PerkinElmer) or Analyst HT plate reader (LJL Biosciences). The data was analyzed and graphed using GraphPad Prism™ to determine the relative efficacy of the ADCs on various cancer cell lines.

| Molecule | killing of huBCMA-expressing myeloma cells (H929) |
| --- | --- |
| 29C12.1 ADC (conjugate) VH: EVQLLESGGALVQPGGSLRLSCAASGFTFSSYAMNWVRQAPGKGLEWVSAISVGGDTYYADSVKGRFTISRDNSKNTLYLQMNSLRAEDTAVYYCAKDQVTMVRGVWYYYGLDVWGQGTTVTVSS VL: DIVMIQSPLSLPVTPGEPASISCRSSQSLLHSNGNNYLDWYLQKPGQSPHLLISLGSNRTSGVPDRFSGSGSGTDFTLKISRVEAEDVGVYYCMQALQPPRRFGQGTKLEIKR | selectively killed huBCMA-expressing target cells; also recorded: showed cytotoxicity |
| 32B5-MCC-DM1 (conjugate) VH: EVQLLESGGALVQPGGSLRLSCAASGFTFSSYAMNWVRQAPGKGLEWVSAISVGGDTYYADSVKGRFTISRDNSKNTLYLHVNSLSAEDSAVYYCAKDQVTLVRGVWYYYGLDVWGQGTTVTVSS VL: VIVLIQSPLSLPVTPGEPASISCRSSQSLLHSNGNNYLDWYLQKPGQSPHLLISLGSNRTSGVPDRFSGSGSGTDFTLKISRVEAEDVGFYYCMQALQPPRRFGQGTKLEIKR | able to target and kill BCMA-expressing myeloma cells (H929) |
| 29C12-MCC-DM1 (conjugate) VH: EVQLLESGGALVQPGGSLRLSCAASGFTFSSYAMNWVRQAPGKGLEWVSAISVGGDTYYADSVKGRFTISRDNSKNTLYLQMNSLRAEDTAVYYCAKDQVTMVRGVWYYYGLDVWGQGTTVTVSS VL: DIVMIQSPLSLPVTPGEPASISCRSSQSLLHSNGNNYLDWYLQKPGQSPHLLISLGSNRTSGVPDRFSGSGSGTDFTLKISRVEAEDVGVYYCMQALQPPRRFGQGTKLEIKR | able to target and kill BCMA-expressing myeloma cells (H929) |
| 33C7.1 ADC (conjugate) VH: EVQLLESGGALVQPGGSLRLSCAASGFTFSSYAMNWVRQAPGKGLEWVSAISVGGDTYYADSVKGRFTISRDNSKNTLYLHVNSLSAEDSAVYYCAKDQVTLVRGVWYYYGLDVWGQGTTVTVSS VL: VIVLIQSPLSLPVTPGEPASISCRSSQSLLHSNGNNYLDWYLQKPGQSPHLLISLGSNRTSGVPDRFSGSGSGTDFTLKISRVEAEDVGFYYCMQALQPPRRFGQGTKLEIKR | selectively killed huBCMA-expressing target cells; also recorded: showed cytotoxicity |
| 40D7.1 ADC (conjugate) VH: EVQLLESGGALVQPGGSLRLSCAASGFTFSSYAMNWVRQAPGKGLEWVSAISVGGDTYYADSVKGRFTISRDNSKNTLYLQMNSLRAEDTAVYYCAKDQVTMVRGVWYYYGLDVWGQGTTVTVSS VL: DIVMIQSPLSLPVTPGEPASISCRSSQSLLHSNGNNFLDWYLQKPGQSPHLLISLGSNRTSGVPDRLSGSGSGTDFTLKISRVEAEDVGIYYCMQALRPPRRFGQGTKLEIKR | selectively killed huBCMA-expressing target cells; also recorded: showed cytotoxicity |
| 37B2.1 ADC (conjugate) VH: EVQLLESGGALVQPGGSLRLSCAASGFTFSNYAMNWVRQAPGKGLEWVSAISVGGDTYYADSVKGRFTISRDNSKNTLYLHVNSLSAEDSAVYYCAKDQVTLVRGVWYYYGLDVWGQGTTVTVSS VL: VIVLIQSPLSLPVTPGEPASISCRSSQSLLHSNGNNYLDWYLQKPGQSPHLLISLGSNRTSGVPDRFSGSGSGTDFTLKISRVEAEDVGFYYCMQALQPPRRFGQGTKLEIKR | selectively killed huBCMA-expressing target cells; also recorded: showed cytotoxicity |
| 35D2.1 ADC (conjugate) VH: EVQLLESGGALVQPGGSLRLSCAASGFTFSSYAMNWVRQAPGKGLEWVSAISVGGGTYYADSVKGRFTISRDNSKNTLYLHVNSLRAEDTAVYYCAKDQVTMVRGVWYYYGLDVWGQGTTVTVSS VL: VIVLIQSPLSLPVTPGEPASISCRSSQSLLHSNGNNYLDWYLQKPGQSPHLLISLGSNRTSGVPDRFSGSGSGTDFTLKISRVEAEDVGFYYCMQALQPPRRFGQGTKLEIKR | selectively killed huBCMA-expressing target cells; also recorded: showed cytotoxicity |
| 32B5.1 ADC (conjugate) VH: EVQLLESGGALVQPGGSLRLSCAASGFTFSSYAMNWVRQAPGKGLEWVSAISVGGDTYYADSVKGRFTISRDNSKNTLYLHVNSLSAEDSAVYYCAKDQVTLVRGVWYYYGLDVWGQGTTVTVSS VL: VIVLIQSPLSLPVTPGEPASISCRSSQSLLHSNGNNYLDWYLQKPGQSPHLLISLGSNRTSGVPDRFSGSGSGTDFTLKISRVEAEDVGFYYCMQALQPPRRFGQGTKLEIKR | selectively killed huBCMA-expressing target cells; also recorded: showed cytotoxicity |

Tested on: various cell lines
Test: Cell viability control: cell lines exposed to free DM1
Assay type: cell-based, human
Details: FIG. 13
Protocol: The ADCs were tested for the ability to target and kill BCMA-expressing myeloma cells. The CellTiter-Glo® Luminescent Cell Viability Assay is a homogeneous method to determine the number of viable cells in culture based on quantitation of the ATP present, which signals the presence of metabolically active cells. The CellTiter-Glo® Assay is applicable to cytotoxicity assays (see http://www.promega.com/products/cell-health-assays/cell-viability-assays/celltiterglo-luminescent-cell-viability-assay/ for more information). The cell viability assay was used to assess the relative killing capacity of various ADCs on various multiple myeloma cell lines and B-cell lines. The protocol provided in the Cell Titer-Glo kit (Promega G7572) was followed. In short, 5×10^3 target cells in 90 ul RPMI 1640, 10% FBS were aliquoted into clear, flat bottom, white walled 96 well plates (Costar #3903). The ADCs were diluted into a 10× stock to create 500 nM maytansine drug equivalents. Each ADC was serially diluted in 2-fold dilutions in RPMI 1640, 10% FBS starting with 500 nM stock. […] Luminescence was read on an EnVision™ Multilabel reader (PerkinElmer) or Analyst HT plate reader (LJL Biosciences). The data was analyzed and graphed using GraphPad Prism™ to determine the relative efficacy of the ADCs on various cancer cell lines. […]

| Molecule | killing of cell lines by free drug |
| --- | --- |
| COc1cc2cc(c1Cl)N(C)C(=O)C[C@H](OC(=O)[C@H](C)N(C)C(=O)CCS)[C@]1(C)O[C@H]1[C@H](C)[C@@H]1C[C@@](O)(NC(=O)O1)[C@H](OC)/C=C/C=C(\C)C2 [DM1] | killed by free DM1 |

Target: T1, [6x Histidine-SUMO]-huBCMA (SEQ ID NO:350) and carboxy terminal clipped forms
Test: Size exclusion chromatography and LC/MS of antibody complexes with Sumo-huBCMA and its clipped forms
Assay type: binding
Details: SEC
Description: To determine which forms of 6×His-SUMO-huBCMA were bound to the anti-huBCMA antibodies, the SEC fractions were isolated and analyzed. Carboxy-terminus fragments of the extracellular domain of human BCMA were generated as clipped forms from the rhuBCMA fusion protein (6×His::Sumo::huBCMA(aa 5-51)::GGS::G3::Avi) of SEQ ID NO:350, as shown in FIG. 45.
A Superdex 200™ 10/30 cm SEC column (GE Healthcare Life Sciences) was used according to the manufacturer's recommendations and run in phosphate buffered saline (PBS). Incubations of antibody with excess levels of sumoBCMA were performed at room temperature for at least 30 minutes.
A Superdex 200™ 10/30 cm SEC column (GE Healthcare Life Sciences) was used according to the manufacturer's recommended condision and run in phosphate buffered saline (PBS). Incubations of antibody with excess levels of sumoBCMA were performed at room temperature for at least 30 minutes.
5 ug of total proteins were reduced in 50 mM Tris/4 M guanidine/9 mM DTT, pH 8.0 at 55° C. for 15 min, and analyzed in Agilent LCTOF system using a Vydac C8 column, 2.1 mm ID×150 mm, […] particle size. […] TOF MS conditions included capillary voltage of 4000 V, drying gas flow at 10 L/min, dry gas temperature at 300° C., nebulizer gas flow at 40 L/min, and fragmentor voltage of 300 V. MS data was analyzed in Agilent MassHunter™ Qualitative Analysis program.

| Molecule | binding to full-length and truncated forms of huBCMA |
| --- | --- |
| 29C12: second campaign anti-huBCMA mAb, Vh SEQ ID NO:220, Vl SEQ ID NO:254 (antibody, V domains shown) VH: EVQLLESGGALVQPGGSLRLSCAASGFTFSSYAMNWVRQAPGKGLEWVSAISVGGDTYYADSVKGRFTISRDNSKNTLYLQMNSLRAEDTAVYYCAKDQVTMVRGVWYYYGLDVWGQGTTVTVSS VL: DIVMIQSPLSLPVTPGEPASISCRSSQSLLHSNGNNYLDWYLQKPGQSPHLLISLGSNRTSGVPDRFSGSGSGTDFTLKISRVEAEDVGVYYCMQALQPPRRFGQGTKLEIKR | bound full-length and truncated forms of BCMA; also recorded: bound all forms of human BCMA |
